Results on one molecule are retold here after paper PMC9254666.

This assay deals with p53 (Homo sapiens), P04637. In words: ELISA. As to conditions: remark: other sources report otherwise.
p53 (Homo sapiens), P04637, sequence (P04637 whole entry): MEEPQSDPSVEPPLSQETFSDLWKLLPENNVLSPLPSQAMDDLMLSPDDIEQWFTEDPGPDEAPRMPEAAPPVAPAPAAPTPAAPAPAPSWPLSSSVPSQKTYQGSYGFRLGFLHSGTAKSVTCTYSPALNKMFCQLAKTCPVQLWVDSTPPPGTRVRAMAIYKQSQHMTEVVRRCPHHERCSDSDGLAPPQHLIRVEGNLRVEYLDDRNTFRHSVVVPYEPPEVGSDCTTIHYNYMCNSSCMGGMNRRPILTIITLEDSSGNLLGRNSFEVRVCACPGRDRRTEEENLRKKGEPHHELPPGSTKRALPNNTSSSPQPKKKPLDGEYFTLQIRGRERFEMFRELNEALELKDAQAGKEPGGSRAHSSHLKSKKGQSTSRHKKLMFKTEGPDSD

B1: HDMX, O15151 (protein)
chain: MTSFSTSAQCSTSDSACRISPGQINQVRPKLPLLKILHAAGAQGEMFTVKEVMHYLGQYIMVKQLYDQQEQHMVYCGGDLLGELLGRQSFSVKDPSPLYDMLRKNLVTLATATTDAAQTLALAQDHSMDIPSQDQLKQSAEESSTSRKRTTEDDIPTLPTSEHKCIHSREDEDLIENLAQDETSRLDLGFEEWDVAGLPWWFLGNLRSNYTPRSNGSTDLQTNQDVGTAIVSDTTDDLWFLNESVSEQLGVGIKVEAADTEQTSEEVGKVSDKKVIEVGKNDDLEDSKSLSDDTDVEVTSEDEWQCTECKKFNSPSKRYCFRCWALRKDWYSDCSKLTHSLSTSDITAIPEKENEGNDVPDCRRTISAPVVRPKDAYIKKENSKLFDPCNSVEFLDLAHSSESQETISSMGEQLDNLSEQRTDTENMEDCQNLLKPCSLCEKRPRDGNIIHGRTGHLVTCFHCARRLKKAGASCPICKKEIQLVIKVFIA
B1 yielded a Kd of 4.4 nM.
